{"source": "the supplement of paper PMC10201428", "key": {"[1]": {"test_system": "VchCAST RNA-guided transposition machinery (E. coli BL21(DE3) host, lacZ target)", "experiment": "relative integration efficiency (T-LR orientation) vs wild-type transposon end (log2 (normalized fold change)); transposon end mutated: right end (5 bp flank + 75 bp right end); higher = more efficient transposition", "procedure,_shortened": "(§1)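 In E. coli BL21(DE3), a T7-driven effector plasmid was paired with a pUC57 mini-transposon donor containing 1549 left-end or 1849 right-end barcoded transposon variants. Cells grew on plates with 0.1 mM IPTG at 37°C for 18 h. Relative integration efficiency was derived from Illumina reads of genomic integration junctions against input plasmids, as a log-transformed output/input barcode fold change normalised to reference barcodes.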"}, "[2]": {"test_system": "VchCAST RNA-guided transposition machinery (E. coli BL21(DE3) host, lacZ target)", "experiment": "relative integration efficiency (T-RL orientation) vs wild-type transposon end (log2 (normalized fold change)); transposon end mutated: right end (5 bp flank + 75 bp right end); higher = more efficient transposition", "procedure,_shortened": "as §1"}}, "note": "± gives the standard deviation of the averaged measurements."}
{"sequence": "ACATTTGTTGATACAACCATATATTGATATCTCCAACCATAAAATGATAATTATCACACCCATAAATTGATATTGCCTCTGATCATAGTCAGACCAACATTGCTACGACCCGTATTCGCACCGACAC", "values": [{"measurement": "relative integration efficiency (log2)", "setting": "[1]", "value": "-0.381 ± 0.023"}, {"measurement": "relative integration efficiency (log2)", "setting": "[2]", "value": "-0.212 ± 0.018"}]}
{"sequence": "ACATTTGTTGATACAACCATATATTGATATCTCCAACCATAAAATGATAATTATCAGTGGGTATTTAACTATAACGCTCTGATCATAGTCAGACCAACATTGCTACGACCCGTATTCGCACCGACAC", "values": [{"measurement": "relative integration efficiency (log2)", "setting": "[1]", "value": "2.32 ± 0.29"}, {"measurement": "relative integration efficiency (log2)", "setting": "[2]", "value": "-1.15 ± 0.24"}]}
{"sequence": "ACATTTGTTGATACAACCATATATTGATATCTCCAACCATAAAGTGATATTTATCACAACCATAAAATGATAATTACTCTGATCATAGTCAGACCAACATTGCTACGACCCGTATTCGCACCGACAC", "values": [{"measurement": "relative integration efficiency (log2)", "setting": "[1]", "value": "-0.762 ± 0.065"}, {"measurement": "relative integration efficiency (log2)", "setting": "[2]", "value": "-0.716 ± 0.2"}]}
{"sequence": "ACATTTGTTGATACAACCATATATTGATATCTCCAACCATAAAGTGATATTTATCACAACCATAAAGTGATATTTACTCTGATCATAGTCAGACCAACATTGCTACGACCCGTATTCGCACCGACAC", "values": [{"measurement": "relative integration efficiency (log2)", "setting": "[1]", "value": "-0.451 ± 0.11"}, {"measurement": "relative integration efficiency (log2)", "setting": "[2]", "value": "-0.409 ± 0.1"}]}
{"sequence": "ACATTTGTTGATACAACCATATATTGATATCTCCAACCATAAAGTGATATTTATCACAACCATAAGTTGATATTTTCTCTGATCATAGTCAGACCAACATTGCTACGACCCGTATTCGCACCGACAC", "values": [{"measurement": "relative integration efficiency (log2)", "setting": "[1]", "value": "0.0054 ± 0.55"}, {"measurement": "relative integration efficiency (log2)", "setting": "[2]", "value": "0.261 ± 0.2"}]}
{"sequence": "ACATTTGTTGATACAACCATATATTGATATCTCCAACCATAAAGTGATATTTATCACAACCATATATTGATATCTCCTCTGATCATAGTCAGACCAACATTGCTACGACCCGTATTCGCACCGACAC", "values": [{"measurement": "relative integration efficiency (log2)", "setting": "[1]", "value": "-0.237 ± 0.36"}, {"measurement": "relative integration efficiency (log2)", "setting": "[2]", "value": "-0.515 ± 0.17"}]}
{"sequence": "ACATTTGTTGATACAACCATATATTGATATCTCCAACCATAAAGTGATATTTATCACACCCATAAATTGATAATTACTCTGATCATAGTCAGACCAACATTGCTACGACCCGTATTCGCACCGACAC", "values": [{"measurement": "relative integration efficiency (log2)", "setting": "[1]", "value": "-0.426 ± 0.18"}, {"measurement": "relative integration efficiency (log2)", "setting": "[2]", "value": "-0.578 ± 0.023"}]}
{"sequence": "ACATTTGTTGATACAACCATATATTGATATCTCCAACCATAAAGTGATATTTATCACACCCATAAATTGATATTGCCTCTGATCATAGTCAGACCAACATTGCTACGACCCGTATTCGCACCGACAC", "values": [{"measurement": "relative integration efficiency (log2)", "setting": "[1]", "value": "-0.302 ± 0.25"}, {"measurement": "relative integration efficiency (log2)", "setting": "[2]", "value": "-0.42 ± 0.096"}]}
{"sequence": "ACATTTGTTGATACAACCATATATTGATATCTCCAACCATAAAGTGATATTTATCAGTGGGTATTTAACTATAACGCTCTGATCATAGTCAGACCAACATTGCTACGACCCGTATTCGCACCGACAC", "values": [{"measurement": "relative integration efficiency (log2)", "setting": "[1]", "value": "2.59 ± 0.059"}, {"measurement": "relative integration efficiency (log2)", "setting": "[2]", "value": "-0.927 ± 0.29"}]}
{"sequence": "ACATTTGTTGATACAACCATATATTGATATCTCCAACCATAAGTTGATATTTTTCACAACCATAAAATGATAATTACTCTGATCATAGTCAGACCAACATTGCTACGACCCGTATTCGCACCGACAC", "values": [{"measurement": "relative integration efficiency (log2)", "setting": "[1]", "value": "-0.448 ± 0.2"}, {"measurement": "relative integration efficiency (log2)", "setting": "[2]", "value": "-0.279 ± 0.084"}]}
{"sequence": "ACATTTGTTGATACAACCATATATTGATATCTCCAACCATAAGTTGATATTTTTCACAACCATAAAGTGATATTTACTCTGATCATAGTCAGACCAACATTGCTACGACCCGTATTCGCACCGACAC", "values": [{"measurement": "relative integration efficiency (log2)", "setting": "[1]", "value": "-0.0291 ± 0.26"}, {"measurement": "relative integration efficiency (log2)", "setting": "[2]", "value": "-0.225 ± 0.017"}]}
{"sequence": "ACATTTGTTGATACAACCATATATTGATATCTCCAACCATAAGTTGATATTTTTCACAACCATAAGTTGATATTTTCTCTGATCATAGTCAGACCAACATTGCTACGACCCGTATTCGCACCGACAC", "values": [{"measurement": "relative integration efficiency (log2)", "setting": "[1]", "value": "-0.31 ± 0.26"}, {"measurement": "relative integration efficiency (log2)", "setting": "[2]", "value": "-0.0557 ± 0.027"}]}
{"sequence": "ACATTTGTTGATACAACCATATATTGATATCTCCAACCATAAGTTGATATTTTTCACAACCATATATTGATATCTCCTCTGATCATAGTCAGACCAACATTGCTACGACCCGTATTCGCACCGACAC", "values": [{"measurement": "relative integration efficiency (log2)", "setting": "[1]", "value": "0.0875 ± 0.82"}, {"measurement": "relative integration efficiency (log2)", "setting": "[2]", "value": "-0.17 ± 0.037"}]}
{"sequence": "ACATTTGTTGATACAACCATATATTGATATCTCCAACCATAAGTTGATATTTTTCACACCCATAAATTGATAATTACTCTGATCATAGTCAGACCAACATTGCTACGACCCGTATTCGCACCGACAC", "values": [{"measurement": "relative integration efficiency (log2)", "setting": "[1]", "value": "0.109 ± 0.44"}, {"measurement": "relative integration efficiency (log2)", "setting": "[2]", "value": "-0.491 ± 0.17"}]}
{"sequence": "ACATTTGTTGATACAACCATATATTGATATCTCCAACCATAAGTTGATATTTTTCACACCCATAAATTGATATTGCCTCTGATCATAGTCAGACCAACATTGCTACGACCCGTATTCGCACCGACAC", "values": [{"measurement": "relative integration efficiency (log2)", "setting": "[1]", "value": "-0.216 ± 0.018"}, {"measurement": "relative integration efficiency (log2)", "setting": "[2]", "value": "-0.335 ± 0.081"}]}
{"sequence": "ACATTTGTTGATACAACCATATATTGATATCTCCAACCATAAGTTGATATTTTTCAGTGGGTATTTAACTATAACGCTCTGATCATAGTCAGACCAACATTGCTACGACCCGTATTCGCACCGACAC", "values": [{"measurement": "relative integration efficiency (log2)", "setting": "[1]", "value": "2.468 ± 0.015"}, {"measurement": "relative integration efficiency (log2)", "setting": "[2]", "value": "-0.859 ± 0.26"}]}
